# B1: F8-IL4: antibody F8 (anti-EDA of fibronectin) in diabody format fused at the C-terminus to murine interleukin 4 via 15 amino acid linker (protein)
# chain: EVQLLESGGGLVQPGGSLRLSCAASGFTFSLFTMSWVRQAPGKGLEWVSAISGSGGSTYYADSVKGRFTISRDNSKNTLYLQMNSLRAEDTAVYYCAKSTHLYLFDYWGQGTLVTVSSGGSGGEIVLTQSPGTLSLSPGERATLSCRASQSVSMPFLAWYQQKPGQAPRLLIYGASSRATGIPDRFSGSGSGTDFTLTISRLEPEDFAVYYCQQMRGRPPTFGQGTKVEIKSSSSGSSSSGSSSSGHIHGCDKNHLREIIGILNEVTGEGTPCTEMDVPNVLTATKNTTESELVCRASKVLRIFYLKHGKTPCLKKNSSVLMELQRLFRAFRCLDSSISCTMNESKSTSLKDFLESLKSIMQMDYS
# modifications: Synthetic sequence Amino acid sequence of F8 -(murine) IL4 of PCT/EP2014/053998
# notes: antibody F8 (anti-EDA of fibronectin) in diabody format fused at the C-terminus to murine interleukin 4 via 15 amino acid linker
# Assays:
# [1] = tested on: experimental autoimmune encephalomyelitis (EAE) in C57/BL6 mice; assay: Experimental autoimmune encephalomyelitis (EAE) model of multiple sclerosis; assay type: in vivo, mouse
# Source text: 36 C57/BL6 mice were immunized with MOG35-55/CFA and pertussis toxin by injection as reported in McCarthy et al. (2012) to induce experimental autoimmune encephalomyelitis (EAE), a model for multiple sclerosis (MS). Mice were scored daily and using a grading system from 0 to 5 reflecting progressive paralysis (McCarthy et al., 2012). Any mouse with newly developed clinical signs of EAE was assigned to one of three groups in a balanced manner. Treatment started on the day of assignment to a group (first day after EAE onset). Mice in the F8-murine IL4 treatment group (SEQ ID NO: 21) (indicated by circles in FIG. 18) received a total of three i.v. injection of 200 μg each (200 μl of a 1 mg/ml solution), every third day (see black arrows in FIG. 18). Mice in the Fingolimod (FTY720) treatment group (indicated by squares in FIG. 18) received daily oral gavage at a dose of 1 mg/kg (see open arrows in FIG. 18).
# F9 teratocarcinoma = assay: Therapy studies in F9 teratocarcinoma-bearing mice; assay type: in vivo, mouse
# Method: In a dose finding study, F9 tumour-bearing mice were randomly grouped (n=5) and injected intravenously (i.v.) into the lateral tail vein when tumours were clearly palpable. […] The therapeutic antibodies were all dissolved in phosphate buffered saline (PBS) and this buffer was also used in the negative control treatment groups. The mice were monitored daily and tumour volume was measured with a calliper (volume=length×width^2×0.5).
# CT26 colon carcinoma = assay: Therapy studies in CT26 tumour-bearing mice; conditions: 90 μg i.v. every 48 h
# Source text: Data represent mean tumour volumes (±SEM), n=5 mice per group. […] Data represent mean tumour volumes (±SEM), n=5 mice per group.
# In the description of the below experiments, data are expressed as the mean (±SEM). Differences in tumor volume, % ID/g and Tumor-to-blood ratio between therapeutic groups were compared using Graphpad Prism's repeated measures (mixed model) ANOVA analysis.
# Mice were sacrificed when tumour volumes reached a maximum of 2000 mm^3.
# In order to study a second immunocompetent mouse model of cancer, the inventors focused on Balb/c mice (obtained from Elevage Janvier [France]) bearing subcutaneous CT26 tumours of colorectal origin.
# [2] = tested on: cytokine levels in ear tissue; assay: Cytokine levels in ear tissue extracts of psoriasis models (multiplex bead flow cytometry); assay type: in vivo, mouse
# Method: Ear tissue was obtained at the end of therapy from each mouse and processed to a tissue extract as previously described (Schwager et al., 2013). The end of therapy was day 13 for the IMQ model described in Example 14 and day 15 for the CHS model described in Example 15. Briefly, ears were cut into small pieces and suspended in a 50 mM Tris, 150 mM NaCl buffer containing complete protease inhibitor cocktail (Roche Diagnostics, Rotkreuz, Switzerland). For homogenization, a 5 mm stainless steel bead (Qiagen, Hombrechtikon, Switzerland) was added, and the tissue was homogenized in a QIAGEN Tissue Lyzer (4× 1 minute, 4° C., 30 Hz). After centrifugation (5 min, 4° C., 16,000 g), supernatant was harvested […]. Protein concentrations were determined by BCA assay (Thermo Fisher Scientific, IL) and total protein concentration of all samples was normalized. To quantify cytokine levels of treated and control mice, a multiplex bead-based flow cytometry analysis was performed using the mouse Th1/Th2/Th17/Th22 13plex FlowCytomix Multiplex kit (eBioscience). FACS analysis was performed on a BD FACS Canto (BD Bioscience, Allschwil, Switzerland) and data evaluated with FlowCytomix Pro 3.0 software (eBioscience). Using standard curves generated by the FlowCytomix Pro 3.0 software with control samples, a level of quantification was assigned for each cytokine.
# CTLL2 cells = assay: CTLL2 cell proliferation bioactivity assay; assay type: cell-based; conditions: 24 h
# Method: The biological activity of murine IL4 was determined by its ability to stimulate the proliferation of CTLL2 cells. […] After incubation at 37° C. for 24 h, cell proliferation was determined with Cell Titer Aqueous One Solution (Promega).
# [3] = IMQ and CHS models, end of therapy
molecule,measurement,setting,value
B1,EAE severity compared with fingolimod,[1]; fingolimod 1 mg/kg daily oral gavage,not significantly different
same,EAE severity compared with PBS,"[1]; three i.v. injections of 200 μg, every third day",significantly reduced EAE severity
same,tumour retardation in dose finding study,"F9 teratocarcinoma; 90 μg compared with 45 μg, i.v. every second day",best tumour retardation results
same,therapeutic effect compared with KSF-IL4,F9 teratocarcinoma; 90 μg i.v. every second day,substantially more potent
same,cure of F9 tumours by treatment alone,F9 teratocarcinoma; monotherapy,not cured
same,single-agent therapeutic activity,"F9 teratocarcinoma; mouse, in vivo",potent single-agent therapeutic activity
same,therapeutic performance,CT26 colon carcinoma,superior therapeutic performance compared to KSF-IL4
same,IL2 level in ear tissue,[2]; [3],do not appear to show a change in concentration
same,IL10 level in ear tissue,[2]; [3],up-regulated
same,IL13 level in ear tissue,[2]; [3],up-regulated
same,IL27 level in ear tissue,[2]; [3],up-regulated
same,IL-1 alpha level in ear tissue,[2]; IMQ-induced psoriasis model,may be down-regulated
same,EC50,"CTLL2 cells; CTLL2 cells, 20000 cells/well",0.023 nM
same,biological cytokine activity,CTLL2 cells; CTLL2 proliferation,comparable to that of recombinant murine IL4
